From the DeepSol protein solubility set

Test: soluble on expression in E. coli; label from the status in PepcDB or PDB records

Sequence | soluble on expression in E. coli
MSGDFDTIRDASSPDEVQLVRLLEEKIKSLQIEIENLRKELNYYKAEMEKMLSPPLIEAVVLDVLPDGRVLVRSSSGPNLVVNIASHIDQKLIKPGISVALNQRGSTILEVLPQKE | soluble
MSGGQQERHVLILNTVGGRRAIALEAAAYSLGRDESNAIVIDFETVSRQHAILLRVPVPGTTSYRYRLVDGNANGKPSTNGTFVNGKRISSHELQHGDVILFGRKAKASYLLLSMADTEFSQYLQSIAFQSIKSDLRGAKETLVGMELSGELRRTPNRELVAAGATQLHPELEHHHHHH | soluble
MSGIKPSVSKGESQAPQTRQLEASKPTVQGIIDILHDTISYVQVEKQSKTINFSIPHLQMIKEQLESIQLKDKNYKDLEKKFNEKQDEHLETIQKLDSTLSRQKLKYDDMRQALSVKIYTLENECSNLQDNYADLQNDFEVQIEKFKKLQNLKSIQNHENSKNVNPLTLDELTEQLKQFKEELSIDQKLKNIQLTCEGLQSAVGNFEMNSKKAKEIEILKMDIKKTQELYESRLLRAAQENKKLLRKNDTLKNYLDNQTAKIGELTAGNKTENRSPTPTLQGLIEILQKFSDDQKLEPECKMLQLHKEECRLILESLEVHDKKDQEIQWFQRQINDQKKRIANLGWSYENALEDKDALELKLEHQYEQMMELKKNFIPKNEISEDLAKTVRNFGKRLRNSRGNLKNAFKELEALKEVQEEEGSSDESSESSASDDLPDGDSSSEE | not soluble
MSGINGAGPSNFFWRWRADDEPVTERERDSSSGANLTNSPQLRPESPTVSGRRLLRSNALSRQTREWQETTSASAERATPPVEPRQPPEAQPAERIVAERIVQELVRAGANLNNVRTMLRNVMDNNAVAFSRVEWNILLQHFPDMHTNGISSDSVLANELRQTLRQVVHQQRTQRALAPILSPAPSRPVASSSRSSQRTLLGRFTGWMAPRQTSSSSQATSSTSVDRHPQDLNQLESLRLADAERRNRSANQTDTDEALRRLTQAGVDMERLSTSLGRYIHSFQPAPPDLRRLLESVGIDPDIPEELTLVNNPVLNLNVALNRMLASRQATTESSSVFPSRAGDTRVRTLPVMPEREDNENNVAYGVRLLRLNPEAEVERVVEAFITDPSSRPEVVADIHAVLRSITSQFRQLRTISKADAESQDFRDAADYPDDPTSCLFGEDLSLSNPHQQVIGLAGESTDILQPYSQEGNKALRFMDMKKLAEHLASKPVHPMNRDRLDDKNIAGYAFRVVPD | not soluble
MSGLHILAFGAHADDVEIGMAGTIAKYTKQGYEVGICDLTEADLSSNGTIELRKEEAKVAARIMGVKTRLNLAMPDRGLYMKEEYIREIVKVIRTYKPKLVFAPYYEDRHPDHANCAKLVEEAIFSAGIRKYMPELSPHRVESFYNYMINGFHKPNFCIDISEYLSIKVEALEAYESQFSTGSDGVKTPLTEGYVETVIAREKMFGKEVGVLYAEGFMSKKPVLLHADLLGGCKLGHHHHHH | soluble
MSGNPGSSLSALRPTPPERGSFPLDHDGECTKYMQEYLKCMQLVQNENAMNCRLLAKDYLRCRMDHQLMDYDEWSHLGLPEDAPGNNGKTIKDATDNK | not soluble
MSGNSLKGKRIGFGLTGSHCTYDAVFPEIEKLVNEGAEVLPIVTYTVKTTNTRFGEGEEWVKKLEQLTGNEVIDTIVKAEPLGPKIPLDCMVIAPLTGNSMSKLANAMTDSPVLMAAKATMRNHRPVVLGISTNDALGLNGVNLMRLMAAKNIYFIPFGQDAPQAKPNSMVAYMPLLRDTILAALEGKQLQPVIIERFRYN | not soluble
MSGQHRTRVGGVILAAGRSSRYESGNKLLATIDGKAVVRQVTETACKSSLSDAVAVLGHEKVAVAAALDGLSLSVQHNDEYATGQSASVRHGVEFARSAGWDAALFLLGDMPFVRVETIEELLEAYRTGTATVVVPEHEGRRGNPVLFDNCHFDSLASVSGDRGGRDIIETTEKTAFIEVSDPGVHWDIDTDADLAEFTDRRDSLLEHHHHHH | not soluble
MSGSDRGDRLYDVLGVTRDATVQEIKTAYRKLALKHHPDKYVDQDSKEVNEIKFKEITAAYEILSDPEKKSHYDLYGDDNGAASSGG | not soluble
MSGSFELSVQDLNDLLSDGSGCYSLPSQPCNEVTPRIYVGNASVAQDIPKLQKLGITHVLNAAEGRSFMHVNTNANFYKDSGITYLGIKANDTQEFNLSAYFERAADFIDQALAQKNGRVLVHCREGYSRSPTLVIAYLMMRQKMDVKSALSIVRQNREIGPNDGFLAQLCQLNDRLAKEGKLKP | soluble
MSGSTESKKQPRRRFIGRKSGNSNNDKLTTVAENGNEIIHKQKSRIALGRSVNHVPEDILNDKELNEAIKLLPSNYNFEIHKTVWNIRKYNAKRIALQMPEGLLIYSLIISDILEQFCGVETLVMGDVSYGACCIDDFTARALDCDFIVHYAHSCLVPIDVTKIKVLYVFVTINIQEDHIIKTLQKNFPKGSRIATFGTIQFNPAVHSVRDKLLNDEEHMLYIIPPQIKPLSRGEVLGCTSERLDKEQYDAMVFIGDGRFHLESAMIHNPEIPAFKYDPYNRKFTREGYDQKQLVEVRAEAIEVARKGKVFGLILGALGRQGNLNTVKNLEKNLIAAGKTVVKIILSEVFPQKLAMFDQIDVFVQVACPRLSIDWGYAFNKPLLTPYEASVLLKKDVMFSEKYYPMDYYEAKGYGRGETPKHAIE | soluble
MSHKFSRRAFAVLTAAAISTSAFATTAPSAIAEPVSNVATADDSSVATSENSLDWGFKASWRTYVTGPWTGGTVDATGGATVNEDGTYNFTLGTGSNYDVDTEKGQLNYEGTVAFASDAHGFNITLSNPQITVEGDTATLSAELSDNAAPEETSTTRVDVAEFELTAPEVSETDADITYTWTDASGTFLETLQPEELSRYAGQEADALSFSITVDKASENPSDDVATGSSSSFLSTILNFLQQLASPLLKLFGSLSS | not soluble
MSHLDEVIARVDAAIEESVIAHMNELLIALSDDAELSREDRYTQQQRLRTAIAHHGRKHKEDMEARHEQLTKGGTIL | soluble
MSHSYSVPKKFPTTVVGSYPKIGPASEAIKKRRAGEISEEEFHRIARESIRMVVEDYIWAGVDIISDGEQTREDMVVYFAERLEGYREGDWVRVFDNVYFRKPIVAGRVRWVRPMIIEDWEYARSISAGRPVKFIITGPYTMLEWSFDLHYGDRRELIFDLARAIRREIDEALARGAEYIQVDEPALSTRPFKEEAELLKEALDIIFKGVGAKRIVHICYGELERILPYILDYPVDQFDLEMKNSNFRLLPYLKEYGYDKEIGYGVIDVHSFQVESVGEVKEAIDRLMKMDIVGPEKVYVDPDCGLKRLPRDVARAKLKNMVEAARLAREEWMAGDPLEHHHHHH | not soluble
MSIAQQLMDMGFPADKAEAAAGNNRNLDQALDWIEKDGAGVPMETDAPAQAAPGAADSGAPPVAASFKCDDCGKLLANDDAIMFHASKTKHENFSESSEAIKPLTAEEKAAKVLEIREKIKVHQAKKAKLEAEENREKEKKRREDGKAMISHKEAARDREIREAAQDRRREKNEDEIARKRVLEQIRLDKEARKAKASGQPVPEAKPAPSAAPVAPPKDYSTTTLQFRLLDGQTVRQQFEANEPLAMVRAWVETNHANGVPFTLMTPFPRKVFTEDDMGTPLKVLNLVPSANVILNRAA | not soluble
MSIEVPISIPKTLIIIPAYNEEEAIADTLTRLLELKQHFTALSICVINDGSQDKTAQIVKNFPVHLINLPYNLGIGSAVQTGYKYAYENGYDIAIQFDADGQHNPDDLYKIIQPIAEGQCDMVLGSRFTEKTAYKGSISRRIGIFYFTALLKVLTKQTFMDPTSGYRAINREVITIFAHNYPKDYPEPEVLIHLKKKKLRINEISVNMQERQGGQSSITPLKSAYYMIKVSLAILMQKIVKGLEHHHHHH | not soluble
MSIRNSASRDDTSASVEDSILDAARSCILDFGLRRTTLAEVARRAGVSRPTVYRRWSDTRAVVADLMTREIAAVMPEFSVEESVHRQLVDAVVHVSTEVRDHPLFVKILRSDQELFTTYILERLGTSQRAIIDQVAFAVSTGQDQGSIRAGDSRHIATMVLLIAQSAVQSAVMVAEELPGDALTEQLRHAVGAYLAPDVAVTHPTDRGDR | not soluble
MSITLRTYIFLDALQPQLATFIGKTARGFLPVPGQASLWVEIAPGIAINRVTDAALKATKVQPAVQVVERAYGLLEVHHFDQGEVLAAGSTILDKLEVREEGRLKPQVMTHQIIRAVEAYQTQIINRNSQGMMILPGESLFILETQPAGYAVLAANEAEKAANVHLVNVTPYGAFGRLYLAGSEAEIDAAAEAAEAAIRSVSGVAQESFRDR | not soluble
MSKDEILKLGREEFFKSVKMEYRPYFEPYETPESVYPDGSINIDCTCLHSALAHRCGYLIRDALVCFNASKTTPRGLDCEKEFVAHAICTEEANNKS | not soluble
MSKIEIFEAAGCCATSSVVVSDEAVKWNASAEWAKKHGVNIQRYSLAKNPQQFLNTPVIRAFLNTSGMESLPATLLDGQLVMAGKLPSREDIARWAG | soluble
MSKKFEGSVAPRERINISYVPKTDGQTAEVELPLNMLVVGDTGNTQETSSLDERQAVSVNKHNFGAVMAEAAIGLNFTVPATLKGSTTDDEMNVALNIKSLDDFSPDSVARQVPEVNKLLELREALTALKGPMGNLPAFRTQLQALLENEESREQLLKEIGQVSNK | soluble
MSKLDTIFEVVISRDKMEATLKQHEPFPEDHPVTKDELLSFMKEHGVVFGVKESVIDQVVKSEKGLTSSVKVAEGLQPQNGKHGYLQPIQHEEEERDVHSISAMNLRDVLSIPEVKQGQVIGKKIPATLGEDGMNVLGEPIKAKPGREFVLRPGKNSTVDEANGTLVAAVDGQMSVDKRTIHVYPVYEVPGDLTMKHGNISFIGNVIIRGHVPDGFVVKAGGDIRVFGTVEGATLEAGGSIFVGAGIVGQNRGCIRAEGGLHTTFINQAKVEVGGDIEVVQSILHSTCTAGGKIICTRGKGNIVGGALSAEDHIYAKEIGNSMHTKTSLYIGAKEKWVTKEKQLAKEYKTTEEELKKLSLLLQKFQELEKENGLTANGRVQRLRVKNTLVQVKEKHEQIKEQLEDVQENLTLNQAGSIVVEQTLYPNVSAHFGKYRRKIVSNHSNVKLSLVDQEIQLSSRLEHHHHHH | soluble
MSKQIVILGAGYGGLLAALNVRKYYSKSEAQVTVINQYPTHQIITELHRLAAGNVSEQAVAMPLTKLFKGKDIDLKIATVESFSVDSKEIKLAGGTTLSYDALVVALGSKTAYFGIPGLEENSMVLKSAADANKIYKHVEDRIREYAKTKNEADATIVIGGGGLTGVELVGELADIMPKLAKSHGVNPKEVKLLLVEAGPKILPVLPDHLIERATTSLEARGVTFLTGLPVTNVAGNEIDLKDGQKLVANTFVWTGGVQGNPLIGESGLEVNRGRATVDAYLQSTSHKDVFVAGDSAVVFAPDGRPYPPTAQIAWQMGELIGYNLYAALEGKAFEEFAPVNSGTLASLGRKDAVATIGASNTPLKGLPASLMKEASNVRYLSHIKGLFSLAY | not soluble
MSKSALHAFIDRARADEDFRSKLAHLDPNQIIEFAGQHGFLFSDEIKGRFINRWSGVYFCPQAIEVGQLCPALVPDGYKNLIHYAQSTCSSSNLSEEERDFRSGIKY | not soluble
MSKSEEKQELPLETSPYTKYEDIEDYKKNAYGTSGHQDVKPGHGGGTTDAPTPSGDAAPSAIDSANQKAKK | soluble
MSKTLDGEPIECEIIDSLKLVNNTMDKIISRGYEKSAIYTPKAYGSVYRLSETNLLSKNEFKDNLLITFMAKKFKKLIRSEKPDLIIGTHPFPMIALSTLKKNFNLHNNESNAYTEHFYKHYTNTINVPPLISVLTDYTTHSTWIQNEIDYYIVGHEYVKELLVFDGVEPSKIRTFGIPLEHHHHHH | not soluble
